A short description of the data set: soluble on expression in E. coli; label from the status in PepcDB or PDB records.
For the sequence “MYGISVFLGEEITNDTIIYIKKMKALGFDGIFTSLHIPEDDTSLYRQRLTDLGAIAKAEKMKIMVDISGEALKRAGFSFDELEPLIELGVTGLRMDYGITIEQMAHASHKIDIGLNASTITLEEVAELKAHQADFSRLEAWHNYYPRPETGIGTTFFNEKNRWLKELGLQVFTFVPGDGQTRGPIFAGLPTLEKHRGQNPFAAAVGLMADPYVDAVYIGDPTISERTMAQFGYYHQTNQFLLEVAPSESRYLKRILGTHTNRLDAARDVLRSELSRTSEMFRKDEIATIESEQTEARPVGTVTIDNEKYGRYMGEIQVTLVDLPKDEKVNTITRIIEKDQTILPLIKAGNQFTLVTEGTIENEFRKLNN”, the “soluble on expression in E. coli” value is recorded as “soluble”.

As for “MGSDKIHHHHHHMRLTTKGRFAVTAMIDLALREHSGPVALAAISSRQQISLSYLEQLFGKLRRHELVESTRGPGGGYSLGRKAEEITVADIIVAVDEPIDATGCGGKENCMGEDSGRCMTHDLWASLNTKMIEFLDSISLRKLVDDQLAKGVSIEEAPVKRAISSQPVVKPIKITAPNSVFALGSSFSK”, the “soluble on expression in E. coli” value was “not soluble”.

As for “MSLKKILVIGSKGFIGSNLVAYYEKINTIDVWGCDVISDYSSRNYFLIDASNSDFNEVFQQVAFDVCINCSGSASVPLSMINPGRDFHLNVLNVFNMLDSIRKNIPSCKFVNLSSAAVYGNPESLPIKEDTPINPLSPYGWHKLQSEILCKQFNQNFALHTCSLRIFSAYGIGLRKQLFWDWFQKINDAASMSIYGTGKESRDFIYIDDLIQCIECVVARGDFNAGIYNIANGQEIYIADAIKEFKKASGKSFEYTFTQETRPGDPINWVADISKLKTLGYQQQVTFEKGVEILMKWLQQEKEGHHHHHH”, the “soluble on expression in E. coli” value is on record as “soluble”.

For “MKEESEESSMDHHSYTTEEVAKRLKVSKLTVYDLIKKGELPSYRVGRQMRIDAADLDQYIKQMKTGKVQVNPVKNDGSSILNTCIISGQELTLDMLAKRIENRLPSSNVLRAYQGSLTSLVKMYQGEGSIVSLHLFDGETGTYNIPYVKRILVGQPCLMINLLSRNVGFYVQKGNPKKIKTWADISGSTIKFVNREKGSGIRVLVDEQLRILKLNKADISGYEWEESNHLGVATQVANGKADVGVGSEKFSQIVNVDFIPIMKEQYDLVILKNKENEELIEVVKDILQSEEFHNELNAIGGYDITKTGQIVYEIK”, the “soluble on expression in E. coli” value is on record as “not soluble”.

As for “MSLKDFRPLILVAEDDDSNFKLIKAIIGKKCDILWAKNGEEMLNLYREHTQDAHAILMDIKMPIMNGLEATRIIREEGASLPIIMQTAYAFSSDRENAMQAGASEVLVKPITVSALRGCLSSYFPEIKWEGHHHHHH”, the “soluble on expression in E. coli” value is “soluble”.

As to “MEMSSNNKPVAGAEIKVAGASPTDSDQEGRFILNFTASLPGDPLMINDIYKKGFKIVNYEKVANWNISSASELKIVLGRTEVINALRKKYYDIGESNSEKEYRKTLAELEELKKQNALSAVEYDQKVDSMSKSMMEWQKRLEIYALKFACINRDELDAMEKQAMELLDHGDVHGAIRLYEEMKLDSTMTLKIAVRQEAKEDMKLLLPSLVNNFQLLKQADDKVACDSVAHLIYEMAADIKLKLMSVEWFFQRNDPSEVLDQYSLIVKDTQSMQEIELVENSLQQSLKEVKLKGELKKKAQLVFERIEDRKKWISIKEKI”, the “soluble on expression in E. coli” value is recorded as “not soluble”.

“MSLNTSRKERSVSTFSIVGYDPKTDELGIAVQSKFLGVGAIVPWAKAGVGAIATQSYANTSYGSKGLDLLARGKTAEETLALLINEDADRHLRQVGIVDAKGRAASFTGQGCYEWAGSMTGHCFAVQGNLLVSEETVKTMAQKFVQATGSLAERLLLTLEAGQCAGGDRRGKQSAALLIVKEKGGYGGFNDRLIDLRVDDHPEPIQELKRIFELQQLYFAKPKEQDQLPLTDDRISIIKSSLHSLGYLSLTQHWRDALQQFIATENLEGRMGTGTQTIDRVVFSFLQKKAKEEGHHHHHH”: the “soluble on expression in E. coli” value is listed as “soluble”.

In the case of “MMIYCARIVAIGLFVADGLTDKMLITFDSNGPKDCLDYSLSLEPSFREESLMILPGDRLLLAGHDYLVTSVGKGAQQALFELGHLTLVFNGDLNACHVGAVHLSGPVPKLRDLHGNLVIEEGRP”, the “soluble on expression in E. coli” value is given as “soluble”.

Consider “MGSDKIHHHHHHMGEHFLLEMVDITKEFPGVKALDRVQLKVRKGSVHALMGENGAGKSTLMKILIGMYKPNEGKIIFDGEEVTFNSINDALDKGISMIHQELSPIPEMTVAENIFLGREPTFGKSGLVDNKKLIEMTRNLLESLEINIDPRKKMGELSIANTQMIEIAKAISFHSKLVIMDEPTSAITEKEVAQLFKMIESLKKKGVGIIYITHKMSELDEIADDISVFRDGKYIGTDTAKNLTRDDLIKMMVGRELNQIFDKPEPKLGEVILSVKSLTKQDYFEDVSFEVRKGEIVGFAGLMGSGRTEVLETIFGVKEAESGEIFVNGQKARIKSPQDAVKNNMGFLTEDRKLTGLFLPLSVRENMITVNIDKYINMGWLNGKRVKKDCEQQKQKLYIKTPSIEQIVENLSGGNQQKVLLARWLLKNPDILFLDEPTRGIDVGAKSEFYNLIFELASQGKAIVVVSSEMAEILGLCDRILVMHEGKVTGELTREEANQEKIMQYATGQAKMAKKLHVHNNFEQTVTANKIEIG”, for which the “soluble on expression in E. coli” value was “not soluble”.

As to “SAENREPRCAIEAELDPVEYTLRKRLPHRLPRRPNDIYVNMKTDFKAQLARCQKLLDGGTRGQNACTEIYIHGLGLAINRAINIALQLQAGSFGSLQVAANTSTVELVDELEPETDSREPLTRVRNNSAIHIRVFRVTPK”, the “soluble on expression in E. coli” value is “soluble”.

Turning to “MGSDKIHHHHHHMKPLPAQAIWFTAPHTVSIREEIAPPPAYGDVRIAAIASLISHGTERLVYRGEVDPTLALDLPTLQGSFAFPIKYGYAIAGRVIDIGPGVEQFQIGDPVAALHPHQTIFTLPAHLVKRLPDTLDPALGGFYANVETALTICHDAAPRLGETVVVLGQGVVGLLVTQLLQRTGAQVIAVEPDAHRRALATQFGATTLAQADPATIAELTDGRGADIVVEVSGSPAALQQAIELTATEGLVVVASWYGQKPAPLILGGHFHRGRVRLRSSQVGRLAPETLPRWDYARRSATVMNLLPRLCLNELISHRIPFVQAAAAYDLLDQAPPGLVQVMLTYADYAPQT”, the “soluble on expression in E. coli” value is “not soluble”.

Consider “MTADALVRAPAEPTHPIREWTTVFVGTGDEHLVVAEGPKHRDWRKIGNVFREPARTAVLGLIRTCIADRELKIETFEGKVADALGPVAAAHPILTPDKSVVVAVQIWSGDPKKNPPDRPNVGAWEWVLSSEDNPPPPQLQLDPGAIELIGMSTRHQDRSVFGPADLYTRSARLSDTLRHVRQIRDCQVKDRFDGTFTIRAEADVTRELRYAERCVEGPAGRRVRGICWDAGTDEALVHESMLDAWLSTMLASTSGMYIAVGDLSYQYPYWLKWVTEHVPGLGHGVSTGQTFALHEEDWPKIIEWVQQVRKGPVSGTVRARRGGGGWLKAEFRGFLLDPLVSDSIGVAVISPEIETIPDETS”, for which the “soluble on expression in E. coli” value is “not soluble”.

As to “MGDVVADALEKLSADQIEQFRKYFNMFDKEGKGYIRATQVGQILRTMGQAFEERDLKQLIKEFDADGSGEIEFEEFAAMVANFVVNNENDEGLEEELREAFRLYDKEGNGYINVSDLRDILRALDDNVSEEELDEMIAEIDADGSGTVDFDEFMEMMSGE”, the “soluble on expression in E. coli” value was “soluble”.

Consider “MATVSTNEFKGGLKIMLDNEPCVILENEYVKPGKGQAFNRVRIRKLLTGKVLEKTFKSGDTAEVADVVDIDLDYLYNDGEFYHFMNNSTFEQLAADAKAVGENAKWLVENNTCMLTLWNGNPIAVTPPNFVELEVTETDPGVKGDTQGTGGKPATLSTGAVVRVPLFVQIGEVIKVDTRSAEYVGRVK”, for which the “soluble on expression in E. coli” value was “soluble”.

With “MGSDKIHHHHHHMRIIEASAVHAAVRQMILAANRVLGDDVYAALKSSMESETSASGREVLRQLLENADLAASGGLALCQDTGAAVFFVEMGEDVRLGGGSLQHVLNSAMAQAYEEGCLRKSMCHPLTRCNTGDNRPAIVHTELVEGDRLTIRYMAKGGGSENMSRCTMLTPAQGWQGIKEFVVRRMAEAGPNPCPPTIVGVGIGGTFDLAPALAKRALFRRLDDVHPDAEVAAMETELLDALNALGIGPMGLGGRTTCLAVKIALHPCHIASLPVAVNVQCHSARHREVIL”, the “soluble on expression in E. coli” value is recorded as “not soluble”.

As for “MGHHHHHHSHMKFRAKIVDGACLNHFTRISNMIAKLAKTCTLRISPDKLNFILCDKLANGGVSMWCELEQENFFNEFQMEGVSAENNEIYLELTSENLSRALKTAQNARALKIKLTNKHFPCLTVSVELLSMSSSSRIVTHDIPIKVIPRKLWKDLQEPVVPDPDVSIYLPVLKTMKSVVEKMKNISNHLVIEANLDGELNLKIETELVCVTTHFKDLGNPPLASESTHEDRNVEHMAEVHIDIRKLLQFLAGQQVNPTKALCNIVNNKMVHFDLLHEDVSLQYFIPALS”, the “soluble on expression in E. coli” value was “soluble”.

For the sequence “MATASADTLCSQQEDESWGNLMLHGFQVEAYKPVRVGDKVCYSFYLKNTGSSDVTLGKKGVYLHTNDGDLSSNSGATISPGKSIFVKDCFIASSSGEWTTYPGVCIITAKGEFCHNFETSCTFDVFIECPENWNCMTAEDASQGNYIRYSDELCGYTITGFTAMNKVRCTATEKLLNALQALGV”, the “soluble on expression in E. coli” value was “not soluble”.

Take “MGSDKIHHHHHHMKWLLFPARIVARTRPNLFSLYRRSVSQYLRPRTIQNLQSMAQTPELKTKLFKPLVWIDCEMTGLDHVNDRIIEICCIITDGHLAPVKAADGQGDSHYESVIHYGPEVMNKMNEWCIEHHGNSGLTAKVLASEKTLAQVEDELLEYIQRYIPDKNVGVLAGNSVHMDRLFMVREFPKVIDHLFYRIVDVSSIMEVARRHNPALQARNPKKEAAHTAYSDIKESIAQLQWYMDNYLKPPQETESVESIGSEQPESPSSSTSSLKRQRTDF”: the “soluble on expression in E. coli” value is given as “not soluble”.

Turning to “EERFAELFAAVDWISLGGGIHFTAENYPLETFAERLKHFSKTYDVTIFLEPGEAAITKSTTLEVSVLDTLYNEKNLAIVDSSIEAHMLDLLIYRENAKLEQNQGPYEIMVCGKSCLAGDIFGTFRFPEPLKIGDRLSFQDTAGYTMVKKNWFNGVTMPAIVIKECNGALTIQRQFSYNDYQKSLS”, the “soluble on expression in E. coli” value is listed as “not soluble”.

Consider “STAGKVIKCKAAVLWELKKPFSIEEVEVAPPKAHEVRIKMVAAGICRSDEHVVSGNLVTPLPVILGHEAAGIVESVGEGVTTVKPGDKVIPLFTPQCGKCRICKNPESNYCLKNDLGNPRGTLQDGTRRFTCSGKPIHHFVGVSTFSQYTVVDENAVAKIDAASPLEKVCLIGCGFSTGYGSAVKVAKVTPGSTCAVFGLGGVGLSVVMGCKAAGAARIIAVDINKDKFAKAKELGATECINPQDYKKPIQEVLKEMTDGGVDFSFEVIGQLDTMMASLLCCHEACGTSVIVGVPPDSQNLSINPMLLLTGRTWKGAIFGGFKSKESVPKLVADFMAKKFSLDALITNVLPFEKINEGFDLLRSGKSIRTVLTF”, for which the “soluble on expression in E. coli” value is “soluble”.

Regarding “MKPIDRFSYLKNNRVSQDTSSLVQCYLPIIGQEALSLYLYTISFWDNGRKEYLFSSILNHLNFGMDRLIKSLKILSAFNLLTLYQKGDVYQLALHAPLSSQDFLGHPVYRRLLEKKIGDVAVEDLKVESADGEEIPVSLNQVFPELAELGSQEDLGLKKKVANDFDLEHFRQLMARDGLRFADEQSDVLNLFAIAEEKKWTWFETYQLAKSTAVSQVISTKRMREKIAQKPVSSDFSLKEATIIKEAKSKTALQFLAEIKQTRKGTITQTERELLQQMAGLGLLDEVINIILLLTFNKVDSANINEKYAMKVANDYAYQKIHSAEEAVLRIRDRGQKAKTQKQNQTAPEKTNVPKWSNPEYKNETSEETRLELERKKQELLARLEKGGD”, the “soluble on expression in E. coli” value is recorded as “not soluble”.
